Biological target: PGDH3-mCherry (protease-free, released from PGDH3-mCherry-TEV-mVenus by TEV cleavage) (Arabidopsis thaliana) (UniProt Q9LT69)
Assay: mass photometry; TwoMP instrument, 5 nM protein in PBS, 60 s movies

- stoichiometry N: 2
Substance: PGDH3-mCherry (protease-free, released from PGDH3-mCherry-TEV-mVenus by TEV cleavage) (from UniProt Q9LT69 39-588) (enzyme)
